The text below walks through data of patent US20120087917A1.

Assay [1] addresses LOXL2 (lysyl oxidase-like 2) (human) (UniProt Q9Y4K0). As to the kind of experiment: SPR, Bio-Rad ProteOn, amine coupling, 25 C.
The target is the same in assay [2]. Put plainly: cell-based or functional assay.

LOXL2 (lysyl oxidase-like 2) (human), sequence (Q9Y4K0 26-774 limits assumed): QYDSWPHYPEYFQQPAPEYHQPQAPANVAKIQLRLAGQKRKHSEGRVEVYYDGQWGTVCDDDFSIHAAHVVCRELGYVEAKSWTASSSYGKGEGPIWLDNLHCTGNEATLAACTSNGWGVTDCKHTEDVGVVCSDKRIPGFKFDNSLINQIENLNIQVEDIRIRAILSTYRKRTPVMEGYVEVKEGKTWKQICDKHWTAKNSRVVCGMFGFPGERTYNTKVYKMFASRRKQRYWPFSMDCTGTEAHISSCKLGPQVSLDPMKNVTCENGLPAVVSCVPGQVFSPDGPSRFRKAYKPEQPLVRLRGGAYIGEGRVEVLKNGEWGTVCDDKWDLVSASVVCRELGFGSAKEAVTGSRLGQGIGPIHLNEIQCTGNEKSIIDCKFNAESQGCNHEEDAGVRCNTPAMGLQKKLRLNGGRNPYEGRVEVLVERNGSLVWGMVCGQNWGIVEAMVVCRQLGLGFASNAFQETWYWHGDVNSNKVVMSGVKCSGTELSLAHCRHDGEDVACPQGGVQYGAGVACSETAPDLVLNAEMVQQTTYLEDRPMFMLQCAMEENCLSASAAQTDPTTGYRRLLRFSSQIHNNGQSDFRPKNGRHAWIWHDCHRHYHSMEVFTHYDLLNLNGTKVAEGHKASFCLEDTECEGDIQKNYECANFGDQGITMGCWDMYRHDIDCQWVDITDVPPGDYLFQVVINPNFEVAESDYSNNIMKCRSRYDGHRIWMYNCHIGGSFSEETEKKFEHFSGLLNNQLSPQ

B1: anti-LOXL2 antibody AB0023 (murine monoclonal antibody) (antibody, V domains shown)
VH: QVQLQQSGAELVRPGTSVKVSCKASGYAFTYYLIEWVKQRPGQGLEWIGVINPGSGGTNYNEKFKGKATLTADKSSSTAYMQLSSLTSDDSAVYFCARNWMNFDYWGQGTTLTVSS
VL: DIVMTQAAPSVSVTPGESVSISCRSSKSLLHSNGNTYLYWFLQRPGQSPQFLIYRMSNLASGVPDRFSGSGSGTAFTLRISRVEAEDVGVYYCMQHLEYPYTFGGGTKLEIK
One may read the Kd as the free concentration of one partner at which half of the binding sites on the other are occupied at equilibrium, for simple one-to-one binding. Low values mean tighter binding, high ones weaker binding. In assay [1], B1 showed a Kd of 0.1 to 1 nM and a t1/2 of 1.65 h. In assay [2], the apparent IC50, LOXL2 enzymatic activity (amplex red/HRP coupled assay, 1,5-diaminopentane substrate) was found to be 30 nM; the α (effect of the antibody on substrate affinity; mode of inhibition) is 1; the β (effect of the antibody on the rate of the enzyme; mode of inhibition) was determined as 0.5.
